Assay results reported in patent US20120321554A1 (MODIQUEST B V, published 2012).
Where no end group is shown, it is not given here.

Columns and labels:
[1] = target: T1, human plexin D1 (in sections of human tumors) (human, UniProt Q9Y4D7 47-1925); test: immunohistochemistry on human tumor tissue
T1 construct: whole, on cells; Endogenous protein on tumor cells and vessels in tissue sections (immunohistochemistry); also called PLXND1

Bovine serum albumin [2] = target: T2, Bovine serum albumin (bovine, UniProt P02769 25-607); test: ELISA with soluble sdab, detection via VSV-G-tag
T2 construct: Control coat in ELISA; also called BSA

[3] = target: T3, PLXND1-peptide-KLH conjugate (human, also: conjugated to KLH, attachment site not given here); test: SPR, Biacore 2000; peptide-KLH conjugate on CM5 chip, sdab in solution, BSA surface subtracted, 1:1 Langmuir model
T3 construct: Coupled to a CM5 chip (27 ug/ml in Na-Acetate pH 4.0) for the Biacore measurements; also called KLH-conjugated peptide
T3 peptide: ALEIQRRFPSPTPTNC-NH2

Bovine serum albumin [4] = target: T2, Bovine serum albumin; test: phage ELISA, anti-M13 detection
[5] = target: mouse plexin D1 (on vessels in mouse tissue) (mouse) (UniProt Q3UH93); test: cell-based or functional assay
Chain of mouse plexin D1 (on vessels in mouse tissue) (mouse) (Q3UH93 49-1925): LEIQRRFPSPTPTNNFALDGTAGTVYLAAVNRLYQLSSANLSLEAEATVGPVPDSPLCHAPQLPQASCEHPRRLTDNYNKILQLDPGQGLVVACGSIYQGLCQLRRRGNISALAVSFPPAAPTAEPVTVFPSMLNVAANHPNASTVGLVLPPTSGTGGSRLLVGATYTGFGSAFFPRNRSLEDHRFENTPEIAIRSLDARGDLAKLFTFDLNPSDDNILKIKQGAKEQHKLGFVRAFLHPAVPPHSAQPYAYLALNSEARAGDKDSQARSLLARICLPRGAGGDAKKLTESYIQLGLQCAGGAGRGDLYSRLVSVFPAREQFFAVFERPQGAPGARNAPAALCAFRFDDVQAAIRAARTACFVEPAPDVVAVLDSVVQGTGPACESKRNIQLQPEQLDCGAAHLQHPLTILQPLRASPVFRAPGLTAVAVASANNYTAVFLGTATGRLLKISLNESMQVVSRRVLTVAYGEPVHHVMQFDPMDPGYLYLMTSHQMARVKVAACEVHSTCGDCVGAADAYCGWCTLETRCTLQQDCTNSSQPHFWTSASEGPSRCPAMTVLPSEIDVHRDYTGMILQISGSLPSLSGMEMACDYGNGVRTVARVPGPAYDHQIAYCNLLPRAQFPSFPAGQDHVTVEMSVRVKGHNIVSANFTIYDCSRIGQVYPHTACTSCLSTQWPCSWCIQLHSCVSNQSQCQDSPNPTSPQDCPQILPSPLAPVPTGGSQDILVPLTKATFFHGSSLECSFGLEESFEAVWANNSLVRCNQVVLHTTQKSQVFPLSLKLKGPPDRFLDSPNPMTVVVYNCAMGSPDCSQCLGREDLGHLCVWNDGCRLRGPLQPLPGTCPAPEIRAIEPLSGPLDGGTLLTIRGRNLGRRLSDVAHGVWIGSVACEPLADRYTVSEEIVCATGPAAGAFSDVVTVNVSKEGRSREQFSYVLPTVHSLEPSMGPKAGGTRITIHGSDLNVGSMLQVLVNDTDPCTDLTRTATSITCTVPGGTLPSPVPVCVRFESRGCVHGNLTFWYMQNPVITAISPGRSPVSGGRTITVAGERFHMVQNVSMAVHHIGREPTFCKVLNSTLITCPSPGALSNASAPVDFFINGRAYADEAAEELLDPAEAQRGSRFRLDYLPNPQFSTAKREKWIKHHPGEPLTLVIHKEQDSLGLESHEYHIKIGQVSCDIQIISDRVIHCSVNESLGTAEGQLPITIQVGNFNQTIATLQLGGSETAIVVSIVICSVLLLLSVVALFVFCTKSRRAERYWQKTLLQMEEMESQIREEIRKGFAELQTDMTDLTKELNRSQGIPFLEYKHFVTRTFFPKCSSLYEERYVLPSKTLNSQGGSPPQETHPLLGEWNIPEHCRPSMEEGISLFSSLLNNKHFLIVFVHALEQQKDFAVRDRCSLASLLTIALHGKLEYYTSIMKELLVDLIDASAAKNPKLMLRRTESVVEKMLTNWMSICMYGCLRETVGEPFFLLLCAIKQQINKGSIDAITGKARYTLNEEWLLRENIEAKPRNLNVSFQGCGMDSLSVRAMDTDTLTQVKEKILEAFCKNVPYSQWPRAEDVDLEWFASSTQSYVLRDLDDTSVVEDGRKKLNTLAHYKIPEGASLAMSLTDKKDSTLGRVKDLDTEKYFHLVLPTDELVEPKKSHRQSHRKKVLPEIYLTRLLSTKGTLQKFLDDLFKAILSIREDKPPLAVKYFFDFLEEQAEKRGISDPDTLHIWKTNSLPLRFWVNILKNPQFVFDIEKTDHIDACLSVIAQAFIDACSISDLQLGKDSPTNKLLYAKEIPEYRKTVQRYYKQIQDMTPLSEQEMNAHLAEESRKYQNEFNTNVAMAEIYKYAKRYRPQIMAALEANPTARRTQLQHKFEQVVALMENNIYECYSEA

T2 sequence (P02769 25-607 limits assumed): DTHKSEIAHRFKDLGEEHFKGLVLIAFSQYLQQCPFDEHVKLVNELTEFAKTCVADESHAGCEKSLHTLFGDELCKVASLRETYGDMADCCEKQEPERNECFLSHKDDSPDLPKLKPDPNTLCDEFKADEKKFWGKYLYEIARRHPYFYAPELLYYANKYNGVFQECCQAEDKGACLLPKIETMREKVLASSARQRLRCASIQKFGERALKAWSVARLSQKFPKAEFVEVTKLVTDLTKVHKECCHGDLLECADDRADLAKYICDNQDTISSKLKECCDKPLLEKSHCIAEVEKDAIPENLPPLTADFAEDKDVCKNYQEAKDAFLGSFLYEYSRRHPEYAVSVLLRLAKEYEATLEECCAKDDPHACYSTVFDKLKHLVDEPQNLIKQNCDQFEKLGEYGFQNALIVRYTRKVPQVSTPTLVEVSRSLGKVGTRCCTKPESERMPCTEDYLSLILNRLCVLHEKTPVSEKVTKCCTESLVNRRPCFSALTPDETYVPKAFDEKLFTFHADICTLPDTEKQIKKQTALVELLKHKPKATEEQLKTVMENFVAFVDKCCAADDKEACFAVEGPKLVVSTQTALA
T1 sequence (Q9Y4D7 47-1925): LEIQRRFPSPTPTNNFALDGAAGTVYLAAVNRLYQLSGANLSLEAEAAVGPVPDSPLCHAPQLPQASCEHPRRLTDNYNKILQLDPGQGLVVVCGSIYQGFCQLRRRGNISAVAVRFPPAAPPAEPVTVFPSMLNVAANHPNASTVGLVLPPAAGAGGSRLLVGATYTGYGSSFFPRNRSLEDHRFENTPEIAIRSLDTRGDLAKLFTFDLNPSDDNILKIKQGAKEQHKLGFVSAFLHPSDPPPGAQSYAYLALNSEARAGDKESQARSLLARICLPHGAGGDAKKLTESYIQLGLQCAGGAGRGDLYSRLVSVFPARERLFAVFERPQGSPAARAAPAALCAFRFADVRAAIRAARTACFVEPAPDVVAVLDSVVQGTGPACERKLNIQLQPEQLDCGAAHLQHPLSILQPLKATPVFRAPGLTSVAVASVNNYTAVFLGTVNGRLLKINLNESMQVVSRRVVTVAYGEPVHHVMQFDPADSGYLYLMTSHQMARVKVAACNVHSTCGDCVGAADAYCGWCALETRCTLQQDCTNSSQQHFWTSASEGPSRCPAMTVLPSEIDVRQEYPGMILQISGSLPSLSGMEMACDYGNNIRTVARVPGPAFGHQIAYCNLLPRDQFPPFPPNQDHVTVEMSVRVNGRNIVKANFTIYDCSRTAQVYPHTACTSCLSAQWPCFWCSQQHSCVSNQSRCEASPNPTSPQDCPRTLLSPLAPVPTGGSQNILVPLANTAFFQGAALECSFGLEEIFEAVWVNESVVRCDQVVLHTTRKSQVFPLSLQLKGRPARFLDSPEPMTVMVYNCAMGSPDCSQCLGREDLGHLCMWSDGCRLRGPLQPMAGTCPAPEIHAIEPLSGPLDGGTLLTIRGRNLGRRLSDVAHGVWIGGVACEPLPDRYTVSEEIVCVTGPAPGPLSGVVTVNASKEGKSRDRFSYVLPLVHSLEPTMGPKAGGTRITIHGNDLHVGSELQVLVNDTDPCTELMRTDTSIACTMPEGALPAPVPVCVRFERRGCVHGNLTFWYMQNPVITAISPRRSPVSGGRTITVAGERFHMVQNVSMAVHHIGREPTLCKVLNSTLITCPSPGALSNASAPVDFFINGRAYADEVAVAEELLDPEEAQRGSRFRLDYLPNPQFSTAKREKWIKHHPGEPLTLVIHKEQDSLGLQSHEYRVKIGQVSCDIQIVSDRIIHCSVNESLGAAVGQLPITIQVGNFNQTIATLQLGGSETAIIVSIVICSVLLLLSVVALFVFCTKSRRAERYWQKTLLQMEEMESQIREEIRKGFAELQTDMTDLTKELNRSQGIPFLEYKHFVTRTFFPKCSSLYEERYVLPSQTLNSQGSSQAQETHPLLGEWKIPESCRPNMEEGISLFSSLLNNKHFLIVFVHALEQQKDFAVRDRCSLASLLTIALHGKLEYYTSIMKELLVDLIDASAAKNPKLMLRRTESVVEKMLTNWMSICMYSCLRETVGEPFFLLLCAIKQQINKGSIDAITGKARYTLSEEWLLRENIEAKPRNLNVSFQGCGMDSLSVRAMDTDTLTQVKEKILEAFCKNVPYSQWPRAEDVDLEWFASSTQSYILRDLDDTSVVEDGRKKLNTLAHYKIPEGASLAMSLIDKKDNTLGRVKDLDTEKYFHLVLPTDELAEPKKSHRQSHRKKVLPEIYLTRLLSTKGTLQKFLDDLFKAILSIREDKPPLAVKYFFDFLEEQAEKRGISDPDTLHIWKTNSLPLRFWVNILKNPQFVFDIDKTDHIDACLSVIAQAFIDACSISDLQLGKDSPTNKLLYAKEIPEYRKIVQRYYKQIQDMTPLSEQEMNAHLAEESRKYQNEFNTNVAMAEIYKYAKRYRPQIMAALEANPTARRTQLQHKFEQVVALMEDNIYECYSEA

B1: Llama single domain antibody A12 (soluble sdab, C-terminal 8*His-tag and VSV-G-tag) (VHH)
VHH: QVQLQESGGGLVQPGGSLRLSCAASGSSISINNWGWYRQAPGKQRERVAAISGGGKTVYADSVKGRFTISRDNAKNTVYLQMNSLKPEDTAVYYCRAVRKSTGWLRGLDVWGQGTQVTVSA
notes: also called sdab A12; V-H single domain antibody A12
- binding result [1]: binds
- binding result (Bovine serum albumin [2]): no binding
- Kd [3]: 21 nM

B2: M13 phage displaying single domain antibody A12 (VHH)
VHH: B1 VHH
notes: Whole M13 phage particle carrying A12; detected with anti-M13 antibody; also called phage A12; M13 phage associated antibody A12; not shown: M13 phage coat protein to which the sdab is fused (phagemid pHENIXHis8VSV); not described
- binding result (Bovine serum albumin [4]): no binding (tested: 10^10 phages)

B3: M13 phage displaying single domain antibody F8 (VHH)
VHH: QVQLQESGGGLVQAGDSLRLSCAASGRTFSTLIMAWFRQAPGKEREFVAAISRGGGSTSYADSVKGRFTISRDNSKNAVYLQMNSLKPDDTAVYYCNARYGSRIYWGQGTQVTVSS
notes: Whole M13 phage particle carrying F8; detected with anti-M13 antibody; also called phage F8; M13 phage associated antibody F8; not shown: M13 phage coat protein to which the sdab is fused (phagemid pHENIXHis8VSV); not described
- quantification of phage homing: colony-forming phages eluted from laser-dissected tumor tissue against unaffected brain [5]: 20 fold
- binding result (Bovine serum albumin [4]): no binding (tested: 10^10 phages)

B4: Llama single domain antibody F8 (soluble sdab, C-terminal 8*His-tag and VSV-G-tag) (VHH)
VHH: B3 VHH
notes: also called sdab F8; V-H single domain antibody F8
- binding result (Bovine serum albumin [2]): no binding
- Kd [3]: 35 nM
